# Target: untagged full-length RAC1 Q61L (UniProt P63000 1-192, Q61L)
# Experiment: SPR; MBP-tagged CYRI immobilised on Sensor chip CM5; purified untagged RAC1 Q61L titrated at different concentrations; steady-state responses fitted to a 1:1 binding model
# Details: both partners purified
binder,measurement,value
"MBP-tagged full-length CYRI-B (natural protein, CYRI-B (encoded by FAM49B), full length; source: E. coli BL21, purified (MBPTrap HP, size-exclusion chromatography)) MGNLLKVLTCTDLEQGPNFFLDFENAQPTESEKEIYNQVNVVLKDAEGILEDLQSYRGAGHEIREAIQHPADEKLQEKAWGAVVPLVGKLKKFYEFSQRLEAALRGLLGALTSTPYSPTQHLEREQALAKQFAEILHFTLRFDELKMTNPAIQNDFSYYRRTLSRMRINNVPAEGENEVNNELANRMSLFYAEATPMLKTLSDATTKFVSENKNLPIENTTDCLSTMASVCRVMLETPEYRSRFTNEETVSFCLRVMVGVIILYDHVHPVGAFAKTSKIDMKGCIKVLKDQPPNSVEGLLNALRYTTKHLNDETTSKQIRSMLQ",Kd,~38 µM
